Patent US20210317231A1 (BYONDIS B V, published 2021)

Assays:
[1] = target: T1, cynomolgus monkey 5T4 antigen (cynomolgus monkey, UniProt Q4R8Y9 35-420); test: flow cytometry, CHOZN cells expressing cyno 5T4
T1 construct: whole, on cells; also called cyno 5T4
T1 sequence (looked up): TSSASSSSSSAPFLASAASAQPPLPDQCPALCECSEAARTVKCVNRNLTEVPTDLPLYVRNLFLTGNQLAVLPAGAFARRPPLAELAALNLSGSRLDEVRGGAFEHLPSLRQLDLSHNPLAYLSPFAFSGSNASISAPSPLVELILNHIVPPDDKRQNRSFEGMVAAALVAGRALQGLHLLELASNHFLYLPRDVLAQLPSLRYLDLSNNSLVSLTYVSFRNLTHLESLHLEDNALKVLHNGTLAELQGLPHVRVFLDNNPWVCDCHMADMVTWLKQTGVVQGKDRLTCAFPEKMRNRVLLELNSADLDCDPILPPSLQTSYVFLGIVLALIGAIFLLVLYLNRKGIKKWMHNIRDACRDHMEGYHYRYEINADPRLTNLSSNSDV
Experimental: (§1) 17 antibodies were selected and affinity to 5T4 antigen was measured using MDA-MB-468 cells, PA-1 cells and Chinese Hamster Ovary (CHO) mammalian cells expressing human or cyno 5T4 antigen (Table 2). In the current application the utilized CHO cells are referred to as CHOZN as these CHO cells expressing human or cyno 5T4 antigen were obtained using the CHOZN® Platform of Sigma-Aldrich. CHOZN cells (SAFC) were transiently transfected, using an Amaxa nucleofector device (Lonza) according to the manufacturer's instructions. Standard, commercially available mammalian expression vectors (SAFC, Life Technologies) were used, which contained the full length human and cyno 5T4 antigen coding sequence (according to accession number NP 006661.1 and Q4R8Y9 respectively), preceded by a human CMV promoter. Transiently transfected CHOZN cells were cultured according the manufacturer's instructions, before being used in antibody binding studies. The 17 selected antibodies are characterised by the amino acid sequences according to the following table (Table 1).
(§2) MDA-MB-468 cells, PA-1 cells or CHOZN cells expressing human or cyno 5T4 antigen (100,000 cells/well in a 96-well plate) were washed three times with ice-cold FACS buffer (1×PBS (Lonza) containing 0.2% v/w BSA (Sigma-Aldrich, St. Louis, Mo.)) and 0.02% v/w NaN3 (Sigma-Aldrich), followed by the addition of a concentration range of each primary mAb (50 μl/well) diluted in ice-cold FACS buffer. After an incubation of 30 minutes at 4° C., cells were washed three times with ice-cold FACS buffer and 50 μl/well secondary mAb (AffiniPure F(ab′)2 fragment Goat-anti-human IgG-APC, 1:6,000 dilution, Jackson Immuno Research) was added. After 30 minutes at 4° C., cells were washed twice and resuspended in 150 μl FACS buffer. Fluorescence intensities were determined by flow cytometry (BD FACSVerse, Fanklin Lakes, N.J.) and indicated as the median fluorescence intensity (MFI). Curves were fitted by nonlinear regression using the sigmoidal dose-response equation with variable slope (four parameters) in GraphPad Prism (version 5.01/6.01 for Windows, GraphPad, San Diego, Calif.). EC₅₀ values were calculated as the concentration in μg/ml that gives a response half way between bottom and top of the curve, when using a 4 parameter logistic fit.

[2] = target: T2, human 5T4 oncofoetal antigen (human, UniProt Q13641 32-420); test: flow cytometry, MDA-MB-468 cells
T2 construct: whole, on cells; also called hu 5T4; human 5T4 antigen
T2 sequence (looked up): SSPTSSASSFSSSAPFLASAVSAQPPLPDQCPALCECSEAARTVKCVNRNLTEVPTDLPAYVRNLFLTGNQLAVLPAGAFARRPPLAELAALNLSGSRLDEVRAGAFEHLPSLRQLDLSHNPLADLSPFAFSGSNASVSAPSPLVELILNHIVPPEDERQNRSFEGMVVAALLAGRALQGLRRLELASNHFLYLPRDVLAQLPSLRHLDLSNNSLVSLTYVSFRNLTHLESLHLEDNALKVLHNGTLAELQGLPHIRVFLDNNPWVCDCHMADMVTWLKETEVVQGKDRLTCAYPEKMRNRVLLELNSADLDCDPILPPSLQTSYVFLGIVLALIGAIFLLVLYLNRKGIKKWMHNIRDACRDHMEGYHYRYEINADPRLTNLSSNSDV
Experimental: as §1, §2

[3] = target: T2, human 5T4 oncofoetal antigen; test: flow cytometry, CHOZN cells expressing hu 5T4
Experimental: as §1, §2

[4] = target: T1, cynomolgus monkey 5T4 antigen; test: flow cytometry, CHOZN cells expressing cyno 5T4; remark: listed apart in the source
Experimental: as §2

[5] = target: T2, human 5T4 oncofoetal antigen; test: flow cytometry, PA-1 cells
Experimental: as §1, §2

| Binder | EC50 [1] [µg/mL] | EC50 [2] [µg/mL] | EC50 [3] [µg/mL] | fold improvement of binding compared to H8 on cyno 5T4 [4] [fold] | EC50 [5] [µg/mL] |
| --- | --- | --- | --- | --- | --- |
| chimeric anti-5T4 monoclonal antibody 825 (antibody, human IgG1, V domains shown, also called clone 825) VH: QSVEESGGRLVTPGTPLTLTCTVSGIDLSSYGMGWVRQAPGKGLEYIGIISRNSVTYYATWAKGRFTISKTSTTVDLKMTSPTTEDTATYFCARRATYSGALGYFDIWGPGTLVTVSF VL: GYDMTQTPASVSAAVGGTVTINCQASENIYSTLAWYQQKPGQPPKVLIYDAFDLASGVPSRFKGSGSGTEYTLTISGVQSDDAATYYCQQGYSGTNVDNAFGGGTEVVVK | 0.14 | 0.07 | 0.13 | 32 | 0.03 |
| chimeric anti-5T4 monoclonal antibody 789 (antibody, human IgG1, V domains shown, also called clone 789) VH: QSVEESGGRLVTPGTPLTLTCTASGFSLSSYWMSWVRQAPGKGLEWIGIIAGRGSTYYASWAKGRCTISKTSTTVDLKITSPTTEDTAAYFCARVSSIYYTFNLWGQGTLVTVSS VL: AQVLTQTPSSVSAAVGGTVTINCQSSQSVYSNNELSWYQQKPGQPPKLLIYYASTLASGVPSRFKGSGSGTQFTLTISGVQSDDAATYYCQGSYYSGSGWYYAFGGGTEVVVK | 0.15 | 0.1 | 0.27 | 32 | 0.03 |
| chimeric anti-5T4 monoclonal antibody 833 (antibody, IgG1, V domains shown, also called clone 833) VH: QSLEESGGGLVTPGGSLTLTCTGSGIDLSHYVVGWVRQAPGKGLEWIGIIYGSGRTYYANWAKGRFTISKTSTTVDLRIARPTAEDTATYFCARDASVSVYYWGYFDLWGQGTLVTVSS VL: AYDMTQTPVSVEVAVGGTVTIKCQASQSIGSELAWYQQKPGQPPKLLIYRASTLESGVPSRFSGSGSGTEFTLTISGVESADAATYYCQQGYTYSEIDNAFGGGTEVVVK | 0.08 | 0.04 | 0.14 | 32 | 0.02 |
| chimeric anti-5T4 monoclonal antibody 843 (antibody, human IgG1, V domains shown) VH: QSLEESGGRLVTPGTPLTLTCTASGFSLNNAYMNWVRQAPGKGLEWIGIINTYGSTYFATWAKGRFTFSKTSTTVDLKITSPTTEDTATYFCARAYAPFSTYSHYYGMDLWGPGTLVTVSS VL: DVVMTQTPSSVSAAVGGTVTIKCQASESIGSWLSWYQQKPGQPPKLLIYEASKLTSGVPSRFKGSGSGTEYTLTISDLESADAATYYCQYTDYGSNYLGTFGGGTEVVVK | 0.21 | 0.08 | 0.21 | 32 | 0.04 |
| chimeric anti-5T4 monoclonal antibody 835 (antibody, human IgG1, V domains shown) VH: QSVEESGGRLVTPGTPLTLTCTVSGIDLSSGAMGWVRQAPGKGLEWIGLISSSPITYYANWARGRFTISKTSTTVDLKITSPTTADTATYFCARGYDDYGEIWFNIWGPGTLVTVSL VL: AIEMTQSPPSLSASVGETVRIRCLAGEDIYSSISWYQQKPGKPPTLLIYGASNLESGVPPRFSGSGSGTDYTLTIGGVQAEDAATYYCLGGWSYSSSLTFGAGTKVEIK | 0.18 | 0.09 | 0.17 | 32 | 0.08 |
| chimeric anti-5T4 monoclonal antibody 899 (antibody, human IgG1, V domains shown) VH: QSVEESGGRLVTPGTPLTLTCTVSGFSLSSYTMSWVRQAPGKGLEYIGIISSSDGTWYANWVKGRFTISKTSTTVDLKMTSLTTEDTATYFCARDGTGNKYYTWDRLDLWGQGTLVTVSS VL: NIVMTQTPSPVSGAVGGTVTINCQASQSIYNELSWYQQKPGQPPKLLIYYASTLASGVSSRFKGSGSGTQFTLTISGVESVDAATYYCQQGYSSSNVDNVFGGGTEVVVK | 0.18 | 0.09 | 0.17 | 32 | 0.05 |
| chimeric anti-5T4 monoclonal antibody 848 (antibody, human IgG1, V domains shown) VH: QSVEESGGRLVTPGTPLTLTCTVSGFSLSSYTMSWVRQAPGKGLEWIGIISSIGSIWYASWAKGRFTISKTSTTVDLKMTSLTTEDTATYFCARDGTGSKYYTWDRLDLWGQGTLVTVSS VL: NIVMTQTPSPVSGAVGGTVTINCQASQSIYNELSWYQQKPGQPPKLLIYYTSTLASGVSSRFKGSGSGTQFTLTISGVESVDAATYYCQQGYSSSDVDNVFGGGTEVVVK | 0.12 | 0.09 | 0.17 | 32 | 0.05 |
